Test results reported in patent US20110206616A1.

Target: SNAP 25 (endogenous, rat neuronal cells) (rat) (UniProt P60881)
Assay: cell-based or functional assay

UniProt P60881, sequence (P60881 whole entry): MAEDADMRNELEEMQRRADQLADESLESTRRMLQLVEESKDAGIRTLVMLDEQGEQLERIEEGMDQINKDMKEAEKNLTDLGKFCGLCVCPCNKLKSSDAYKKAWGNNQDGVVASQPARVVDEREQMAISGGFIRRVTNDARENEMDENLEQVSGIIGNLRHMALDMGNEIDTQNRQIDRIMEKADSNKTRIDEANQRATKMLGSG

## BoNT/Aad^ek, AcTEV- and enterokinase-processed disulfide-bonded LC-HC heterodimer (from UniProt P0DPI1 2-449; P0DPI0 449-1296)
  cleavage of intracellular SNAP 25 (none detectable at the concentration tested): 500 nM
